Laboratory results taken from CN114656556A.

Experiments:
[1] = target: SARS-CoV2 S蛋白, 奥密克戎 (Omicron:BA.1), on pseudovirus (SARS-CoV2); test: cell-based or functional assay
[2] = target: SARS-CoV2 S蛋白, 拉姆达 (Lambda:C.37), on pseudovirus (SARS-CoV2); test: cell-based or functional assay

B1: 全人源单克隆抗体YK-CoV2-03 (fully human anti-SARS-CoV2 monoclonal antibody, whole IgG) (antibody, V domains shown)
VH: EVQLQESGGGLVQPGGSLRLSCAASGLTVSRNYMTWVRQAPGKGLEWVSLIYAGGSTYYADSVKGRFTISRDNSKNTLYLQMNSLGAEDTAVYYCARDLVYYGMDVWGQGTTVTVAS
VL: DIQMTQSPFSLSASVGDRVTITCRASQGISSYLAWYQQKPGKAPKLLIYAASTLQSGVPSRFSGSGSGTDFTLTISSLQPEDFATYYCQHLNSDRYTFGQGTKLEI
[1]
  pseudovirus neutralisation IC50 (luciferase RLU, 293T-hACE2 cells): 0.32 µg/mL
[2]
  pseudovirus neutralisation IC50 (luciferase RLU, 293T-hACE2 cells): 0.0209 µg/mL
